Test results as given in patent US11160886B2, “Method for labeling of sensitive and thermosensitive targeting biomolecules with technetium based compounds” (BRACCO IMAGING SPA, priority 2016, dated 2021).

Key:
[1] = Biodistribution in healthy rats; format: in vivo, Sprague-Dawley rats; settings: for Biodistribution: Blood / Biodistribution: Heart / Biodistribution: Intestine / Biodistribution: Kidneys / Biodistribution: Liver / Biodistribution: Lungs / Biodistribution: Muscle / Biodistribution: Spleen / Biodistribution: Stomach / Biodistribution: Urine: healthy rats
Protocol: Before injection, ^99mTc complexes were purified using a reversed-phase C18 Sep-Pack cartridge to remove the excess of unlabeled ligands. After purification, the activity recovered was further diluted with PBS to obtain a final solution that is <0.5% in EtOH content. The RCP and the stability of the purified complexes were evaluated prior to in vivo administration and for the succeeding 18 h.
Biodistribution in healthy rats. Biodistribution in healthy rats was performed on complex 1, complex 2 and complex 9 in order to evaluate their pharmacokinetic profile and elimination pathways as well as their resistance to in vivo metabolism. Female Sprague-Dawley rats weighing 180-200 g were anesthetized with an intramuscular injection of a mixture of Zoletil (40 mg/kg) and xylazine (2 mg/kg). A jugular vein was surgically exposed and 100 μl (300-370 kBq) of the solution containing the selected [^99mTc(N)(PNP3OH)]-compound was injected. The rats (n=3) were scarified by cervical dislocation at different times after injection. The blood was withdrawn from the heart with a syringe immediately after death and quantified. Organs were excised, rinsed in saline, weighed, and the activity was counted in a Nal well counter.

[2] = system: αvβ3 positive M21 and αvβ3 negative M21L cell lines; assay: Cell uptake and internalization; format: cell-based, human; settings: M21 and M21L cells, 37° C., 90 min
Protocol: Cell Studies of complex 9 were conducted on M21 and M21L cells grown in RPMI1640 (Gibco Life Technologies). Expression of αvβ3 and of αvβ5 in the cells lines was analyzed by flow cytometry.
Cellular uptakes of the radiolabeled peptide, were assessed in suspension at 37° C. in human melanoma αvβ3 positive M21 and negative M21L cell lines. Preliminary studies were performed in order to set the experimental conditions to avoid cell damage and/or death during uptake experiments. […] Afterward, 1 ml of the cell suspension (1×10^6 cells/ml) was incubated with intermittent agitation with 10 μCi (10 μL) of ^99mTc complexes. At 90 min, the tubes were vortexed, the cells were transferred in Eppendorf microcentrifuge tube (1.5 ml) and the incubation was interrupted by centrifugation (3000 rpm for 5 min at 10° C.). […] After centrifugation (3000 rpm for 10 min at 10° C.) the supernatant was separated from the pellet, each fraction was collected, placed in a separated counting tube and the activity was determined using a counter (Cobra II, Packard) to determinate both the cell uptake and internalized fraction.
The uptake of complexes is expressed as percentage cell uptake of the total activity on 10^6 cells (% cell uptake/10^6 cells). […]

[^99mTc(N)(PNP3OH)(Cys-cRGDfK)]^+ [Complex 9]
Pharmacokinetic profile: blood clearance ([1]; healthy animals, within the first 60 min p.i.): rapid blood clearance | Biodistribution: Blood ([1]; 30 min): 0.46 ± 0.17 % IA/g | Biodistribution: Heart ([1]; 30 min): 0.25 ± 0.06 % IA/g | Biodistribution: Intestine ([1]; 30 min): 1.29 ± 0.13 % IA/g | Biodistribution: Kidneys ([1]; 30 min): 4.50 ± 1.59 % IA/g | Biodistribution: Liver ([1]; 30 min): 0.90 ± 0.16 % IA/g | Biodistribution: Lungs ([1]; 30 min): 0.62 ± 0.15 % IA/g | Biodistribution: Muscle ([1]; 30 min): 0.17 ± 0.01 % IA/g | Biodistribution: Spleen ([1]; 30 min): 0.41 ± 0.10 % IA/g | Biodistribution: Stomach ([1]; 30 min): 0.62 ± 0.14 % IA/g | Biodistribution: Urine ([1]; 30 min): 28.98 ± 7.22 % IA/g | Biodistribution: Blood ([1]; 60 min): 0.25 ± 0.03 % IA/g | Biodistribution: Heart ([1]; 60 min): 0.15 ± 0.00 % IA/g | Biodistribution: Intestine ([1]; 60 min): 1.95 ± 0.97 % IA/g | Biodistribution: Kidneys ([1]; 60 min): 4.20 ± 0.35 % IA/g | Biodistribution: Liver ([1]; 60 min): 0.80 ± 0.06 % IA/g | Biodistribution: Lungs ([1]; 60 min): 0.49 ± 0.01 % IA/g | Biodistribution: Muscle ([1]; 60 min): 0.13 ± 0.01 % IA/g | Biodistribution: Spleen ([1]; 60 min): 0.39 ± 0.04 % IA/g | Biodistribution: Stomach ([1]; 60 min): 0.64 ± 0.09 % IA/g | Biodistribution: Urine ([1]; 60 min): 28.16 ± 2.49 % IA/g | Biodistribution: Blood ([1]; 120 min): 0.16 ± 0.11 % IA/g | Biodistribution: Heart ([1]; 120 min): 0.13 ± 0.05 % IA/g | Biodistribution: Intestine ([1]; 120 min): 3.76 ± 0.17 % IA/g | Biodistribution: Kidneys ([1]; 120 min): 3.13 ± 1.69 % IA/g | Biodistribution: Liver ([1]; 120 min): 0.75 ± 0.19 % IA/g | Biodistribution: Lungs ([1]; 120 min): 0.37 ± 0.15 % IA/g | Biodistribution: Muscle ([1]; 120 min): 0.12 ± 0.05 % IA/g | Biodistribution: Spleen ([1]; 120 min): 0.34 ± 0.05 % IA/g | Biodistribution: Stomach ([1]; 120 min): 0.62 ± 0.09 % IA/g | Biodistribution: Urine ([1]; 120 min): 34.58 ± 10.09 % IA/g | Biodistribution: Blood ([1]; 240 min): 0.12 ± 0.01 % IA/g | Biodistribution: Heart ([1]; 240 min): 0.22 ± 0.13 % IA/g | Biodistribution: Intestine ([1]; 240 min): 3.94 ± 0.91 % IA/g | Biodistribution: Kidneys ([1]; 240 min): 7.24 ± 0.55 % IA/g | Biodistribution: Liver ([1]; 240 min): 0.88 ± 0.04 % IA/g | Biodistribution: Lungs ([1]; 240 min): 0.42 ± 0.06 % IA/g | Biodistribution: Muscle ([1]; 240 min): 0.11 ± 0.00 % IA/g | Biodistribution: Spleen ([1]; 240 min): 0.47 ± 0.04 % IA/g | Biodistribution: Stomach ([1]; 240 min): 0.61 ± 0.11 % IA/g | Biodistribution: Urine ([1]; 240 min): 24.91 ± 1.00 % IA/g | Recognition by molecular target (cellular uptake, FIG. 10) [2]: recognized by the corresponding molecular target
